According to patent publication US20180355064A1 (published 2018):

Columns and labels:
[1] = target: cynomolgus monkey CD3 epsilon 1-26_Fc fusion protein; experiment: SPR
[2] = target: human CD3 epsilon 1-26_Fc fusion protein; experiment: SPR

Kd [1] | Kd [2] | Binder
1 nM | 0.4 nM | chimeric 9G7 antibody (antibody, V domains shown) VH: QVTLKESGPGILQPSQTLSLTCSFSGLSLSTSGKGVGWIRQPSGKGLEWLAHIWWDDDKRYNPALKSRLTISKDTSSNQVFLKIASVDTADTATYYCARIELGRSYVMDYWGQGTTVTVSS VL: DIVMTQSHKFMSTSVGDRVSISCKASQDVITSVAWFQQKPGQSPKLLIYSASYRYTGVPDRFTGSGSGTDFTFTISSVQAEDLAVYYCQQHYTIPLTFGAGTKLELKR
1 nM | 0.4 nM | humanized 9G7 best-framework antibody (antibody, V domains shown) VH: EVQLVESGGGLVQPGGSLRLSCAFSGLSLSTSGKGVGWIRQAPGKGLEWLAHIWWDDDKRYNPALKSRLTISKDTSKNTVYLQMNSLRAEDTAVYYCARIELGRSYVMDYWGQGTLVTVSS VL: DIQMTQSPSSLSASVGDRVTITCRASQDVITSVAWFQQKPGKAPKLLIYSASYRYTGVPSRFSGSGSGTDFTLTISSLQPEDFATYYCQQHYTIPLTFGQGTKVEIKR
3.2 nM | 0.5 nM | humanized 9G7 best-fit antibody (antibody, V domains shown) VH: QVTLKESGPTLVKPTQTLTLTCTFSGLSLSTSGKGVGWIRQPPGKALEWLAHIWWDDDKRYNPALKSRLTITKDTSKNQVVLTMTNMDPVDTATYYCARIELGRSYVMDYWGQGTLVTVSS VL: DIQMTQSPSSLSASVGDRVTITCQASQDVITSVAWYQQKPGKAPKLLIYSASYRYTGVPSRFSGSGSGTDFTFTISSLQPEDIATYYCQQHYTIPLTFGQGTKLEIKR
